According to publication PMC8240387:

Columns and labels:
[1] = biological target: Mammalian cell-expressed N6 (mN6), broadly neutralising anti-HIV monoclonal antibody N6 expressed in HEK-293T cells (human); experiment: SPR
[2] = biological target: Plant-expressed N6 (pN6), broadly neutralising anti-HIV monoclonal antibody N6 expressed in glycoengineered ΔXF N. benthamiana (human); experiment: SPR
Sequence of Plant-expressed N6 (pN6), broadly neutralising anti-HIV monoclonal antibody N6 expressed in glycoengineered ΔXF N. benthamiana (human) (heavy, as listed by the source, chain 1 of 2): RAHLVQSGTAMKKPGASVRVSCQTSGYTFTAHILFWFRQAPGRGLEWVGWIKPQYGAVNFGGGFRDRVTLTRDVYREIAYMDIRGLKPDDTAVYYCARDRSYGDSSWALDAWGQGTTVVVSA
Sequence of Plant-expressed N6 (pN6), broadly neutralising anti-HIV monoclonal antibody N6 expressed in glycoengineered ΔXF N. benthamiana (human) (light, as listed by the source, chain 2 of 2): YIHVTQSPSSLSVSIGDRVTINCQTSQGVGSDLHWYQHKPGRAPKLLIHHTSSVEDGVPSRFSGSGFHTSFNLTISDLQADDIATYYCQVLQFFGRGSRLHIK

Sequence of Mammalian cell-expressed N6 (mN6), broadly neutralising anti-HIV monoclonal antibody N6 expressed in HEK-293T cells (human) (heavy, as listed by the source, chain 1 of 2): as the sequence (heavy, as listed by the source, chain 1 of 2) above
Sequence of Mammalian cell-expressed N6 (mN6), broadly neutralising anti-HIV monoclonal antibody N6 expressed in HEK-293T cells (human) (light, as listed by the source, chain 2 of 2): as the sequence (light, as listed by the source, chain 2 of 2) above
Sequence of soluble FcγRIIIa (P08637 17-208): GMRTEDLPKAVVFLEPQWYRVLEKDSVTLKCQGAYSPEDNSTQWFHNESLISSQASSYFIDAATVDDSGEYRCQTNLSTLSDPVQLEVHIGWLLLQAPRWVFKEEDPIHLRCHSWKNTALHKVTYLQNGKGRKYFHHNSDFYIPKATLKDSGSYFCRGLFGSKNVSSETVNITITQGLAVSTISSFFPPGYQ

Substance | Kd [1] | Kd [2]
recombinant, soluble HIV-1 UG37 gp140 (domain or fragment) | 17.1 nM | 11.9 nM
soluble FcγRIIIa (from UniProt P08637 17-208) (receptor) | 858 nM | 64.4 nM
